Patent US20140206609A1 (Sanofi, published 2014)
*1 amine or outer side, *2 acyl side, *3 side chain or, on linkers, in order; H or OH if unused. Where no end group is shown, it is not given here. Side-chain parts run from the residue outwards. [ ]: non-standard residue; d: D form. The star is where a group is joined. γGlu = O=C(O)[C@H](CCC(=O)[*:2])N[*:1]; Stearoyl = CCCCCCCCCCCCCCCCCC(=O)*; Palmitoyl = CCCCCCCCCCCCCCCC(=O)*; Aib = CC(C)(N)C(=O)O

T1: human GIP receptor (human, UniProt P48546 22-466)
T1 sequence (looked up): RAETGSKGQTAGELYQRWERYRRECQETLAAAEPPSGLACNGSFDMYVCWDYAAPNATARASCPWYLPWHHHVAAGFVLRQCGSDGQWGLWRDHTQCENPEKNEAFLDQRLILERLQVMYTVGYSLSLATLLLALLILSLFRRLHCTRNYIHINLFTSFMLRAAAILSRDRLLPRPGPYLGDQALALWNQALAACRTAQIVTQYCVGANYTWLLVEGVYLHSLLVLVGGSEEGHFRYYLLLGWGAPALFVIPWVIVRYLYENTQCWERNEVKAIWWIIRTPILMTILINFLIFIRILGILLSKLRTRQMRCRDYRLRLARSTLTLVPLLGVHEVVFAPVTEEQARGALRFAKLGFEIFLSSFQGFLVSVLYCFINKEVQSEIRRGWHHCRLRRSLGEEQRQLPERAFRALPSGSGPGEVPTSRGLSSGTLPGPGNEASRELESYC

B1: SEQ ID NO: 11 (peptide)
peptide: Y[Aib]EGTFTSDLSIQK([γGlu-Palmitoyl])DKRAA[Aib]DFIEWLKAGGPSSGAPPPS-NH2
modifications: N-terminus assumed
SMILES: CCCCCCCCCCCCCCCC(=O)N[C@@H](CCC(=O)NCCCC[C@H](NC(=O)[C@H](CCC(N)=O)NC(=O)[C@@H](NC(=O)[C@H](CO)NC(=O)[C@H](CC(C)C)NC(=O)[C@H](CC(=O)O)NC(=O)[C@H](CO)NC(=O)[C@@H](NC(=O)[C@H](Cc1ccccc1)NC(=O)[C@@H](NC(=O)CNC(=O)[C@H](CCC(=O)O)NC(=O)C(C)(C)NC(=O)[C@@H](N)Cc1ccc(O)cc1)[C@@H](C)O)[C@@H](C)O)[C@@H](C)CC)C(=O)N[C@@H](CC(=O)O)C(=O)N[C@@H](CCCCN)C(=O)N[C@@H](CCCNC(=N)N)C(=O)N[C@@H](C)C(=O)N[C@@H](C)C(=O)NC(C)(C)C(=O)N[C@@H](CC(=O)O)C(=O)N[C@@H](Cc1ccccc1)C(=O)N[C@H](C(=O)N[C@@H](CCC(=O)O)C(=O)N[C@@H](Cc1c[nH]c2ccccc12)C(=O)N[C@@H](CC(C)C)C(=O)N[C@@H](CCCCN)C(=O)N[C@@H](C)C(=O)NCC(=O)NCC(=O)N1CCC[C@H]1C(=O)N[C@@H](CO)C(=O)N[C@@H](CO)C(=O)NCC(=O)N[C@@H](C)C(=O)N1CCC[C@H]1C(=O)N1CCC[C@H]1C(=O)N1CCC[C@H]1C(=O)N[C@@H](CO)C(N)=O)[C@@H](C)CC)C(=O)O
B2: SEQ ID NO: 12 (peptide)
peptide: Y[Aib]EGTFTSDLSIQK([γGlu-Palmitoyl])DKRAAQDFIEWLKNGGPSSGAPPPS-NH2
modifications: N-terminus assumed
SMILES: CCCCCCCCCCCCCCCC(=O)N[C@@H](CCC(=O)NCCCC[C@H](NC(=O)[C@H](CCC(N)=O)NC(=O)[C@@H](NC(=O)[C@H](CO)NC(=O)[C@H](CC(C)C)NC(=O)[C@H](CC(=O)O)NC(=O)[C@H](CO)NC(=O)[C@@H](NC(=O)[C@H](Cc1ccccc1)NC(=O)[C@@H](NC(=O)CNC(=O)[C@H](CCC(=O)O)NC(=O)C(C)(C)NC(=O)[C@@H](N)Cc1ccc(O)cc1)[C@@H](C)O)[C@@H](C)O)[C@@H](C)CC)C(=O)N[C@@H](CC(=O)O)C(=O)N[C@@H](CCCCN)C(=O)N[C@@H](CCCNC(=N)N)C(=O)N[C@@H](C)C(=O)N[C@@H](C)C(=O)N[C@@H](CCC(N)=O)C(=O)N[C@@H](CC(=O)O)C(=O)N[C@@H](Cc1ccccc1)C(=O)N[C@H](C(=O)N[C@@H](CCC(=O)O)C(=O)N[C@@H](Cc1c[nH]c2ccccc12)C(=O)N[C@@H](CC(C)C)C(=O)N[C@@H](CCCCN)C(=O)N[C@@H](CC(N)=O)C(=O)NCC(=O)NCC(=O)N1CCC[C@H]1C(=O)N[C@@H](CO)C(=O)N[C@@H](CO)C(=O)NCC(=O)N[C@@H](C)C(=O)N1CCC[C@H]1C(=O)N1CCC[C@H]1C(=O)N1CCC[C@H]1C(=O)N[C@@H](CO)C(N)=O)[C@@H](C)CC)C(=O)O
B3: SEQ ID NO: 13 (peptide)
peptide: Y[Aib]QGTFTSDLSIQK([γGlu-Palmitoyl])DSRAAQDFIEWLKNGGPSSGAPPPS-NH2
modifications: N-terminus assumed
SMILES: CCCCCCCCCCCCCCCC(=O)N[C@@H](CCC(=O)NCCCC[C@H](NC(=O)[C@H](CCC(N)=O)NC(=O)[C@@H](NC(=O)[C@H](CO)NC(=O)[C@H](CC(C)C)NC(=O)[C@H](CC(=O)O)NC(=O)[C@H](CO)NC(=O)[C@@H](NC(=O)[C@H](Cc1ccccc1)NC(=O)[C@@H](NC(=O)CNC(=O)[C@H](CCC(N)=O)NC(=O)C(C)(C)NC(=O)[C@@H](N)Cc1ccc(O)cc1)[C@@H](C)O)[C@@H](C)O)[C@@H](C)CC)C(=O)N[C@@H](CC(=O)O)C(=O)N[C@@H](CO)C(=O)N[C@@H](CCCNC(=N)N)C(=O)N[C@@H](C)C(=O)N[C@@H](C)C(=O)N[C@@H](CCC(N)=O)C(=O)N[C@@H](CC(=O)O)C(=O)N[C@@H](Cc1ccccc1)C(=O)N[C@H](C(=O)N[C@@H](CCC(=O)O)C(=O)N[C@@H](Cc1c[nH]c2ccccc12)C(=O)N[C@@H](CC(C)C)C(=O)N[C@@H](CCCCN)C(=O)N[C@@H](CC(N)=O)C(=O)NCC(=O)NCC(=O)N1CCC[C@H]1C(=O)N[C@@H](CO)C(=O)N[C@@H](CO)C(=O)NCC(=O)N[C@@H](C)C(=O)N1CCC[C@H]1C(=O)N1CCC[C@H]1C(=O)N1CCC[C@H]1C(=O)N[C@@H](CO)C(N)=O)[C@@H](C)CC)C(=O)O
B4: SEQ ID NO: 14 (peptide)
peptide: Y[Aib]EGTFTSDLSIQK([γGlu-Stearoyl])EKRAAQEFIEWLKAGGPSSGAPPPS-NH2
modifications: N-terminus assumed
SMILES: CCCCCCCCCCCCCCCCCC(=O)N[C@@H](CCC(=O)NCCCC[C@H](NC(=O)[C@H](CCC(N)=O)NC(=O)[C@@H](NC(=O)[C@H](CO)NC(=O)[C@H](CC(C)C)NC(=O)[C@H](CC(=O)O)NC(=O)[C@H](CO)NC(=O)[C@@H](NC(=O)[C@H](Cc1ccccc1)NC(=O)[C@@H](NC(=O)CNC(=O)[C@H](CCC(=O)O)NC(=O)C(C)(C)NC(=O)[C@@H](N)Cc1ccc(O)cc1)[C@@H](C)O)[C@@H](C)O)[C@@H](C)CC)C(=O)N[C@@H](CCC(=O)O)C(=O)N[C@@H](CCCCN)C(=O)N[C@@H](CCCNC(=N)N)C(=O)N[C@@H](C)C(=O)N[C@@H](C)C(=O)N[C@@H](CCC(N)=O)C(=O)N[C@@H](CCC(=O)O)C(=O)N[C@@H](Cc1ccccc1)C(=O)N[C@H](C(=O)N[C@@H](CCC(=O)O)C(=O)N[C@@H](Cc1c[nH]c2ccccc12)C(=O)N[C@@H](CC(C)C)C(=O)N[C@@H](CCCCN)C(=O)N[C@@H](C)C(=O)NCC(=O)NCC(=O)N1CCC[C@H]1C(=O)N[C@@H](CO)C(=O)N[C@@H](CO)C(=O)NCC(=O)N[C@@H](C)C(=O)N1CCC[C@H]1C(=O)N1CCC[C@H]1C(=O)N1CCC[C@H]1C(=O)N[C@@H](CO)C(N)=O)[C@@H](C)CC)C(=O)O
B5: SEQ ID NO: 16 (peptide)
peptide: Y[Aib]EGTFTSDLSIQK([γGlu-γGlu-Stearoyl])EKRAA[Aib]EFIEWLKNTGPSSGAPPPS-NH2
modifications: N-terminus assumed
SMILES: CCCCCCCCCCCCCCCCCC(=O)N[C@@H](CCC(=O)N[C@@H](CCC(=O)NCCCC[C@H](NC(=O)[C@H](CCC(N)=O)NC(=O)[C@@H](NC(=O)[C@H](CO)NC(=O)[C@H](CC(C)C)NC(=O)[C@H](CC(=O)O)NC(=O)[C@H](CO)NC(=O)[C@@H](NC(=O)[C@H](Cc1ccccc1)NC(=O)[C@@H](NC(=O)CNC(=O)[C@H](CCC(=O)O)NC(=O)C(C)(C)NC(=O)[C@@H](N)Cc1ccc(O)cc1)[C@@H](C)O)[C@@H](C)O)[C@@H](C)CC)C(=O)N[C@@H](CCC(=O)O)C(=O)N[C@@H](CCCCN)C(=O)N[C@@H](CCCNC(=N)N)C(=O)N[C@@H](C)C(=O)N[C@@H](C)C(=O)NC(C)(C)C(=O)N[C@@H](CCC(=O)O)C(=O)N[C@@H](Cc1ccccc1)C(=O)N[C@H](C(=O)N[C@@H](CCC(=O)O)C(=O)N[C@@H](Cc1c[nH]c2ccccc12)C(=O)N[C@@H](CC(C)C)C(=O)N[C@@H](CCCCN)C(=O)N[C@@H](CC(N)=O)C(=O)N[C@H](C(=O)NCC(=O)N1CCC[C@H]1C(=O)N[C@@H](CO)C(=O)N[C@@H](CO)C(=O)NCC(=O)N[C@@H](C)C(=O)N1CCC[C@H]1C(=O)N1CCC[C@H]1C(=O)N1CCC[C@H]1C(=O)N[C@@H](CO)C(N)=O)[C@@H](C)O)[C@@H](C)CC)C(=O)O)C(=O)O

Key:
Test in all cases: cell-based or functional assay
[1] = target: human glucagon receptor (human, UniProt P47871 26-477)
[2] = target: human GLP-1 receptor (human, UniProt P43220 24-463)
[3] = target: T1, human GIP receptor

human glucagon receptor, sequence (P47871 26-477): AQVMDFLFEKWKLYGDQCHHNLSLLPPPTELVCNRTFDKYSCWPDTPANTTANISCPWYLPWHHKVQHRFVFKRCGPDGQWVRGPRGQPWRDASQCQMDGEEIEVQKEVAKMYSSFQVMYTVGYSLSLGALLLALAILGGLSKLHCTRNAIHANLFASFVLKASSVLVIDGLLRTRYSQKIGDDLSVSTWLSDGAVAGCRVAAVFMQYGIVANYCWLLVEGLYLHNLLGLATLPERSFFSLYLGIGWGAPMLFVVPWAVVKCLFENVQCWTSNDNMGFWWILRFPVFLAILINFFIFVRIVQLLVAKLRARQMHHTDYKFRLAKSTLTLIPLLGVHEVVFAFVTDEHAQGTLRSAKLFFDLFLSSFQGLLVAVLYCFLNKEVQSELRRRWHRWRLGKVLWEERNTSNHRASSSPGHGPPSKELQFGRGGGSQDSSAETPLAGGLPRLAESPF

Binder | EC50 hGLUC R [pM] [1] | EC50 hGLP-1 R [pM] [2] | EC50 hGIP R [pM] [3]
B1 | 7220 pM | 11.5 pM | 3.2 pM
B2 | 1890 pM | 12.7 pM | 8.9 pM
B3 | 31.3 pM | 7.3 pM | 71 pM
B4 | 3760 pM | 4.3 pM | 4.4 pM
B5 | 2890 pM | 4 pM | 5.1 pM
